This is an account of results in US12013397B2, “Compositions and methods for determining cancer prognosis” (CASE WESTERN RESERVE UNIVERSITY, priority 2019, dated 2024).

Ends that are not written are not given here. Texas Red = Texas Red fluorescent dye

Experiment [1] addresses T1, proteolytically cleaved extracellular fragments of PTPμ (Homo sapiens, UniProt P28827).
T1 construct: from tissue; host or cells: formalin-fixed, paraffin-embedded human glioma patient tumor tissue (TMAs and slides)
T1 sequence (P28827 21-742 limits assumed): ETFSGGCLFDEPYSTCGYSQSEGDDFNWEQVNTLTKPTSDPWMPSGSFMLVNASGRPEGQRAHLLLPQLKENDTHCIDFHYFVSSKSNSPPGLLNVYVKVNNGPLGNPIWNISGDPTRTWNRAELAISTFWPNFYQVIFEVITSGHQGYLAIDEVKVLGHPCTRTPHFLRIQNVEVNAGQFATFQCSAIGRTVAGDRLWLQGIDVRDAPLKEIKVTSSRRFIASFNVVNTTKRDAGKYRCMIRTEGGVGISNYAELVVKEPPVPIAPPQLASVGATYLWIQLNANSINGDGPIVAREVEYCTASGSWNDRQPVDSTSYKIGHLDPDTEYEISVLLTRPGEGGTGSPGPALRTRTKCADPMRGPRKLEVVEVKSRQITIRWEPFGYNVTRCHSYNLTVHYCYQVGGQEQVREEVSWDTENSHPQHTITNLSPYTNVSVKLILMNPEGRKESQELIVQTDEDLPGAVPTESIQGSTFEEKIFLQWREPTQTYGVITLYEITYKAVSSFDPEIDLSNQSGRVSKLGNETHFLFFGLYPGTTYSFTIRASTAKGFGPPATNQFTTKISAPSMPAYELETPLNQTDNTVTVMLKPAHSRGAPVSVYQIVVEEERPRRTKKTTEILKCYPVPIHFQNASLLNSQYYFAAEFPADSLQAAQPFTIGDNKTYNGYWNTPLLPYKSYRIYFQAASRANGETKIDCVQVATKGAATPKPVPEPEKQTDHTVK
Briefly: SBK4-TR staining of human glioma tissue microarrays and slides. The format is binding. The source says:
The SBK4 peptide used for immunohistochemistry was synthesized as described. The N-terminal glycine of SBK4 peptide was coupled to Texas Red (TR; Molecular Probes Inc, Eugene Oreg.) as described to make the fluorescent agent. Anti-IDH1 R132H Monoclonal Antibody clone H09 (American Research Products [Dianova GmbH], Waltham, Mass.) reacts specifically with the isocitrate dehydrogenase 1 (IDH1) R132H point mutation in tissue sections from formalin-fixed brain tumor specimens.
Patient tumor samples were obtained, formalin-fixed, and paraffin-embedded for analysis. Some samples were incorporated into tissue microarrays (TMAs) and some samples were placed on individual slides. Together, these TMAs and slides represented samples from 94 glioma patients (25 adolescent and young adult and 69 adult) with astrocytomas (n=12), oligodendroglioma (n=14), oligoastrocytoma (n=7), and GBM (n=61). Tissue staining with SBK4-TR has been described. […] Antibody binding was detected using MACH4 horseradish peroxidase (Biocare, Pacheco, Calif.) and diaminobenzidine was used as chromogenic substrate. […]
Tissue staining intensity for both PTPμ and IDH1 biomarkers was quantified by blinded observers. […] For IDH1, samples were scored as either positive for the mutation or negative as it is done clinically.

Another experiment addresses T2, PTPμ biomarker (Homo sapiens, UniProt P28827).
T2 construct: from tissue; host or cells: formalin-fixed, paraffin-embedded human gynecologic cancer and normal tissue, and patient-derived xenograft sections
The experiment can be described thus: SBK4-TR staining of human gynecologic cancer, normal and PDX tissue (Image J quantification). The format is binding. An excerpt:
The SBK4 peptide used for tissue staining was synthesized as described. The N-terminal glycine of SBK4 peptide was coupled to Texas Red (TR; Molecular Probes Inc, Eugene, Oreg., USA) as described to make the fluorescent agent. Anti-p53 Monoclonal or Ki-67 antibodies were used to counterstain tissue sections, to indicate nuclear staining of p53 typical in high-grade serous ovarian carcinoma.
All samples used for this study were obtained from the Difeo and Avril labs. The Avril group generated tissue microarrays of several gynecologic cancers (TMAs) to facilitate screening a large number of patient biopsy tissues. The Difeo lab generated TMAs that included sections from patient derived xenografts (PDXs) matched to original patient tumor tissue sections. Additional individual biopsy and normal tissue samples were stained as individual slides. Together, these TMAs and slides represented samples from 73 patients (49 with gynecologic cancer, 22 sections from patients without cancer, and 2 patients with gynecologic cancer tissue and control tissue samples collected). The following gynecologic cancer types were represented in the dataset: endometrial clear cell carcinoma (n=3), endometrial endometrioid carcinoma (n=18), endometrial high-grade serous carcinoma (n =6), endometrial leiomyosarcoma (n=1), endometrial undifferentiated carcinoma (n=1), endometrial undifferentiated sarcoma (n=1), neuroendocrine tumor of the uterus (small cell) (n=1), ovarian carcinosarcoma (n=1), ovarian borderline serous (n=1), ovarian high-grade villoglandular carcinoma (n=1), ovarian high-grade serous carcinoma (n=16), ovarian endometrioid carcinoma (n=1).
Tissue staining with SBK4-TR was described. Positive controls (GBM) and negative controls (Epilepsy) were tested with the TMAs or individual slides. Tumor samples were obtained formalin-fixed and paraffin-embedded. Prior to staining, the TMAs or slides were deparaffinized and blocked with 2% goat serum in phosphate buffered saline (PBS) for 20 min at room temperature (RT). The samples were then incubated with SBK4-TR agent diluted in 2% goat serum in PBS at RT for 1 hr in the dark. Following a PBS rinse, the TMAs or slides were coverslipped with Vectashield Hard Set Mounting Medium (Vector Laboratories, Inc., Burlingame, Calif., USA) and imaged on a Hamamatsu Nanozoomer S60 slide scanner (Bridgewater, N.J., USA). Some samples were also stained for the IDH1 mutation. Tissue staining for both PTPμ was quantified using Image J.

The next experiment concerns GBM tissue. Particulars: cited from earlier work.

T2 sequence (P28827 21-1452): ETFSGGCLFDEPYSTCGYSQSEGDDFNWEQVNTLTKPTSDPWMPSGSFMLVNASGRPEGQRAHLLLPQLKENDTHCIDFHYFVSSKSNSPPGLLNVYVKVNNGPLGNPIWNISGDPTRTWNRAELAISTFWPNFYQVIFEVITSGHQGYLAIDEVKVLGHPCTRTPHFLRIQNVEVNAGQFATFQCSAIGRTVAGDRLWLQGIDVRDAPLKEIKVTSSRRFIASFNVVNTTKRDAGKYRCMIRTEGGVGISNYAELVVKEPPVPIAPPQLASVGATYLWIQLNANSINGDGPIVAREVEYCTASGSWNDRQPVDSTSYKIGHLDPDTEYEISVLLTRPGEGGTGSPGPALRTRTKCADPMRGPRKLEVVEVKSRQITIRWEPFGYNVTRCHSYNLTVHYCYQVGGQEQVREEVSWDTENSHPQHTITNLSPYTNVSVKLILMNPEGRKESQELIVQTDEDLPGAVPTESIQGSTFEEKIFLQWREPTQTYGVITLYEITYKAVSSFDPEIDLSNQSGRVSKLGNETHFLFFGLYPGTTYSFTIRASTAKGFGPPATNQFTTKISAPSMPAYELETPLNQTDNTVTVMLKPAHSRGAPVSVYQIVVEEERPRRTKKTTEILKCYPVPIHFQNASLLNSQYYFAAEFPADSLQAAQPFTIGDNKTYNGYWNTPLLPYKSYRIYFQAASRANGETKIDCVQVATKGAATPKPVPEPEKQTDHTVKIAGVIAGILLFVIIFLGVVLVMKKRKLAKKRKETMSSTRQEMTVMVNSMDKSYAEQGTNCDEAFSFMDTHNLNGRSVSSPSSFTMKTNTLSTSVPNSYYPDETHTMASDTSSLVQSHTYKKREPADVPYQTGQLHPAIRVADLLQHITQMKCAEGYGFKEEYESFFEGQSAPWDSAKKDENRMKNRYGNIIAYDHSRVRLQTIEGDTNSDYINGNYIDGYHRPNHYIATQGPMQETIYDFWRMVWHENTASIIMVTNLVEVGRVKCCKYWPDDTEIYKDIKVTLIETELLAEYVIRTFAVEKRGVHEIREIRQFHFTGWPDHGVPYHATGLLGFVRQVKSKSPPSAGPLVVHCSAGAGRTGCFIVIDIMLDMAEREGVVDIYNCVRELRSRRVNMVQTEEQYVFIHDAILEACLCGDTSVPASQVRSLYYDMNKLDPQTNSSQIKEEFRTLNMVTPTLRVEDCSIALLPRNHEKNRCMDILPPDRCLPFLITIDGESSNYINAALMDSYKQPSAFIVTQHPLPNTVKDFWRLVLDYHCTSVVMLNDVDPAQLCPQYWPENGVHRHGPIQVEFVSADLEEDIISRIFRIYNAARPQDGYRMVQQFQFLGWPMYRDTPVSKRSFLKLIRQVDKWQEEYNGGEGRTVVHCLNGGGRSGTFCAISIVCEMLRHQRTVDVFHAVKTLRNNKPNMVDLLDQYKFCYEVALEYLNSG

In the case of “SBK4-TR: SBK4 peptide (SEQ ID NO: 7) conjugated to Texas Red ({Texas Red}-GIDVRDAPLKEIKVTSSR)”, the “PTPμ staining of the tumor samples” value in experiment [1] (formalin-fixed paraffin-embedded glioma samples, fluorescent microscope) was “variable PTPμ staining”. Further, the “labeling of glioma tissue by grade” value in experiment [1] (low- and high-grade glioma tissue) was “labels both low- and high-grade glioma tissue”. Moreover, in the experiment with PTPμ biomarker (endometrial endometrioid cancer, high-grade serous endometrial carcinoma, endometrial clear cell carcinoma, small sample sizes), the “SBK4-TR staining of tumor tissue compared to control tissue” value is “did not have statistically significantly higher SBK4-TR staining than control tissue”. The “staining observed within the TMAs” value with PTPμ biomarker (gynecologic cancer TMAs) is on record as “varied amongst individual patients”. Further, the “SBK4-TR labeling of tumor tissue compared to normal tissue” value with PTPμ biomarker (high-grade serous ovarian carcinoma vs normal ovary or normal fallopian tube) is recorded as “statistically significantly higher staining”. Moreover, in the experiment with PTPμ biomarker (matched patient tumor and PDX tumors, all samples), the “SBK4-TR labeling of PDX tissue compared to original patient tumor tissue” value was “PDX tissue had higher levels of SBK4-TR labeling than the original patient tumor tissue”. In the experiment with PTPμ biomarker (patient with multiple lesions), the “correspondence of sites of high SBK4-TR labeling with p53 and Ki-67 staining” value was “correspond to areas of high p53 and Ki-67 staining”.

As to `NCC(=O)CCC(=O)O` [5-ALA, 5-aminolevulinic acid], the “labeling the dispersive GBM tumor border” value in the experiment on GBM tissue (in vivo) is on record as “less effective”. In addition, the “six month progression-free survival” value with GBM tissue (surgical resection of GBM) is given as “improvement”. The “extent of tumor resection” value in the experiment with GBM tissue (surgical resection of GBM, versus 36% with white light alone) was 65%.
